Earlier results, collected in publication PMC12930849.
“And” between values parts separate entries of the source, which are not always exact repeats. Identical values can stand only once.

Tests used:
Assay in all cases: NMR
Asp52 = Asp52 (UniProt position 70, TDGSTDYGILQ)
Glu35 = Glu35 (UniProt position 53, CAAKFESNFNT)
Asp87 = Asp87 (UniProt position 105, ALLSSDITASV)
Asp119 = Asp119 (UniProt position 137, RCKGTDVQAWI)
Asp18 = Asp18 (UniProt position 36, KRHGLDNYRGY)
Asp101 = Asp101 (UniProt position 119, KKIVSDGNGMN)
Glu7 = Glu7 (UniProt position 25, VFGRCELAAAM)
Cterm = Cterm (UniProt position 147, IRGCRL-----)
His15 = His15 (UniProt position 33, AAMKRHGLDNY)

For “Hen egg-white lysozyme (lysozyme C) (Gallus gallus)”, the pKa (Asp52) is listed as 3.68 ± 0.08 and 3.6 ± 0.3, the pKa (Glu35) is listed as 6.20 ± 0.10 and 6.1 ± 0.4 and the pKa (Asp87) is listed as 2.07 ± 0.15 and 2.2 ± 0.1. For the same substance, the pKa (Asp119) was 3.20 ± 0.09 and 3.5 ± 0.3, the pKa (Asp18) was 2.66 ± 0.08 and 2.8 ± 0.3 and the pKa (Asp101) was 4.09 ± 0.07 and 4.5 ± 0.1. The pKa (Glu7) was 2.85 ± 0.25 and 2.6 ± 0.2, the pKa (Cterm) was 2.75 ± 0.02 and 2.7 ± 0.2 and the pKa (His15) was 5.36 ± 0.07 and 5.5 ± 0.2.
